The values that follow come from publication PMC10783083, “Val43 residue of NsrR is crucial for the nitric oxide response of Salmonella Typhimurium”.

The target of one data set is NsrR V43A (Salmonella enterica serovar Typhimurium …, UniProt Q8ZKA3 1-141, V43A). The experiment in a line: EMSA; no NO; 0.0625-4 uM protein; stronger than WT. The conditions noted are these: protein: recombinant; tags: N-terminal His (pET28a); chain copies: 2; label: 32P (5' by T4 PNK); blunt. (In general: In EMSA bound probe runs differently from free probe, usually more slowly.)

Data set [1] concerns the target NsrR V43A, in vitro translated (Salmonella enterica serovar Typhimurium …, UniProt Q8ZKA3 1-141, V43A). The experiment in a line: EMSA; 2 uM; clear shift. To be noted: protein: ivt; tags: N-terminal His (pET28a); chain copies: 2; label: 32P (5' by T4 PNK); blunt.

B1: hmp probe (dsDNA)
DNA 1: AAGATGCATTTGATATACATCATT
DNA 2: AATGATGTATATCAAATGCATCTT
Turning to B1, the binding result (in the data set with NsrR V43A; in data set [1]) was “binds” each time.
